# Non-standard residues stand in square brackets, D forms with d. No end group written: not given here. *: point of attachment. Phe(F5) = N[C@@H](Cc1c(F)c(F)c(F)c(F)c1F)C(=O)O; Desaminotyrosyl = O=C(CCc1ccc(O)cc1)*; NMeY = CN[C@@H](Cc1ccc(O)cc1)C(=O)O; Agmatine = N=C(N)NCCCCN*; NMeA = CN[C@@H](C)C(=O)O; Nle = CCCC[C@H](N)C(=O)O; Orn = NCCC[C@H](N)C(=O)O; Abu = CC[C@H](N)C(=O)O; Aoc = NCCCCCCCC(=O)O; GABA = NCCCC(=O)O
# T1: GHRH receptor (membrane receptors of human anterior pituitary cells) (human, UniProt Q02643 23-423)
# T1 construct: whole, on cells; Native receptor in a membrane fraction of purchased normal human pituitaries, not intact cells; also called hGHRH receptor; human pituitary membrane homogenates
# T1 sequence (looked up): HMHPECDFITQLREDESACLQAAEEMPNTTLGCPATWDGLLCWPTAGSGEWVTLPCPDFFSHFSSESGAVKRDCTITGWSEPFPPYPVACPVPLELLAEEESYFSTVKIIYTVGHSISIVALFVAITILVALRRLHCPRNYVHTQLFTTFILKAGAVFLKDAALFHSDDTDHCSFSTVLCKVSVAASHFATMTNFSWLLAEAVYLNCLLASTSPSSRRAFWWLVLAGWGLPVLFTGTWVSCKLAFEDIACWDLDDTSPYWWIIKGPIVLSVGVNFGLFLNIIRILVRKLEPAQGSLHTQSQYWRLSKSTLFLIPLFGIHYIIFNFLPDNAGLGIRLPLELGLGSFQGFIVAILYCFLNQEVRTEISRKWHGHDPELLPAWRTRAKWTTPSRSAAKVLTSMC
# B1: P-27414 [N-Me-Tyr^1, D-Ala^2, Fpa5^6, Orn^12, Abu^15, Orn^21, Nle^27, Gab^30]hGHRH(1-30)NH-CH3 (peptide)
# peptide: [NMeY][dA]DAI[Phe(F5)]TNSYR[Orn]VL[Abu]QLSAR[Orn]LLQDI[Nle]SR[GABA]-NHMe
# notes: also called Peptide 27414
# B2: P-20357 [Dat^1, D-Ala^2, N-Me-Ala^8, Orn^12, Abu^15, Orn^21, Nle^27, Asp^28, Agm^29]hGHRH(1-29)NH2 (peptide)
# peptide: [Desaminotyrosyl][dA]DAIFT[NMeA]SYR[Orn]VL[Abu]QLSAR[Orn]LLQDI[Nle]D[Agmatine]
# SMILES: CCCC[C@H](NC(=O)[C@@H](NC(=O)[C@H](CC(=O)O)NC(=O)[C@H](CCC(N)=O)NC(=O)[C@H](CC(C)C)NC(=O)[C@H](CC(C)C)NC(=O)[C@H](CCCN)NC(=O)[C@H](CCCNC(=N)N)NC(=O)[C@H](C)NC(=O)[C@H](CO)NC(=O)[C@H](CC(C)C)NC(=O)[C@H](CCC(N)=O)NC(=O)[C@H](CC)NC(=O)[C@H](CC(C)C)NC(=O)[C@@H](NC(=O)[C@H](CCCN)NC(=O)[C@H](CCCNC(=N)N)NC(=O)[C@H](Cc1ccc(O)cc1)NC(=O)[C@H](CO)NC(=O)[C@H](C)N(C)C(=O)[C@@H](NC(=O)[C@H](Cc1ccccc1)NC(=O)[C@@H](NC(=O)[C@H](C)NC(=O)[C@H](CC(=O)O)NC(=O)[C@@H](C)NC(=O)CCc1ccc(O)cc1)[C@@H](C)CC)[C@@H](C)O)C(C)C)[C@@H](C)CC)C(=O)N[C@@H](CC(=O)O)C(=O)NCCCCNC(=N)N
# notes: also called Peptide 20357
# B3: P-20359 [N-Me-Tyr^1, D-Ala^2, Fpa5^6, Orn^12, Abu^15, Orn^21, Nle^27, Asp^28, Agm^29]hGHRH(1-29)NH2 (peptide)
# peptide: [NMeY][dA]DAI[Phe(F5)]TNSYR[Orn]VL[Abu]QLSAR[Orn]LLQDI[Nle]D[Agmatine]
# notes: also called Peptide 20359
# B4: P-27400 [Dat^1, D-Ala^2, Orn^12, Abu^15, Orn^21, Nle^27, Asp^28]hGHRH(1-29)NH-CH3 (peptide)
# peptide: [Desaminotyrosyl][dA]DAIFTNSYR[Orn]VL[Abu]QLSAR[Orn]LLQDI[Nle]DR-NHMe
# SMILES: CCCC[C@H](NC(=O)[C@@H](NC(=O)[C@H](CC(=O)O)NC(=O)[C@H](CCC(N)=O)NC(=O)[C@H](CC(C)C)NC(=O)[C@H](CC(C)C)NC(=O)[C@H](CCCN)NC(=O)[C@H](CCCNC(=N)N)NC(=O)[C@H](C)NC(=O)[C@H](CO)NC(=O)[C@H](CC(C)C)NC(=O)[C@H](CCC(N)=O)NC(=O)[C@H](CC)NC(=O)[C@H](CC(C)C)NC(=O)[C@@H](NC(=O)[C@H](CCCN)NC(=O)[C@H](CCCNC(=N)N)NC(=O)[C@H](Cc1ccc(O)cc1)NC(=O)[C@H](CO)NC(=O)[C@H](CC(N)=O)NC(=O)[C@@H](NC(=O)[C@H](Cc1ccccc1)NC(=O)[C@@H](NC(=O)[C@H](C)NC(=O)[C@H](CC(=O)O)NC(=O)[C@@H](C)NC(=O)CCc1ccc(O)cc1)[C@@H](C)CC)[C@@H](C)O)C(C)C)[C@@H](C)CC)C(=O)N[C@@H](CC(=O)O)C(=O)N[C@@H](CCCNC(=N)N)C(=O)NC
# B5: P-21300 [Dat^1, D-Ala^2, Orn^12, Abu^15, Orn^21, Nle^27, Asp^28, Amc^30]hGHRH(1-30)NH2 (peptide)
# peptide: [Desaminotyrosyl][dA]DAIFTNSYR[Orn]VL[Abu]QLSAR[Orn]LLQDI[Nle]DR[Aoc]-NH2
# SMILES: CCCC[C@H](NC(=O)[C@@H](NC(=O)[C@H](CC(=O)O)NC(=O)[C@H](CCC(N)=O)NC(=O)[C@H](CC(C)C)NC(=O)[C@H](CC(C)C)NC(=O)[C@H](CCCN)NC(=O)[C@H](CCCNC(=N)N)NC(=O)[C@H](C)NC(=O)[C@H](CO)NC(=O)[C@H](CC(C)C)NC(=O)[C@H](CCC(N)=O)NC(=O)[C@H](CC)NC(=O)[C@H](CC(C)C)NC(=O)[C@@H](NC(=O)[C@H](CCCN)NC(=O)[C@H](CCCNC(=N)N)NC(=O)[C@H](Cc1ccc(O)cc1)NC(=O)[C@H](CO)NC(=O)[C@H](CC(N)=O)NC(=O)[C@@H](NC(=O)[C@H](Cc1ccccc1)NC(=O)[C@@H](NC(=O)[C@H](C)NC(=O)[C@H](CC(=O)O)NC(=O)[C@@H](C)NC(=O)CCc1ccc(O)cc1)[C@@H](C)CC)[C@@H](C)O)C(C)C)[C@@H](C)CC)C(=O)N[C@@H](CC(=O)O)C(=O)N[C@@H](CCCNC(=N)N)C(=O)NCCCCCCCC(N)=O
# notes: also called Peptide 21300
# B6: P-21303 [N-Me-Tyr^1, D-Ala^2, Orn^12, Abu^15, Orn^21, Nle^27, Asp^28, Amc^30]hGHRH(1-30)NH2 (peptide)
# peptide: [NMeY][dA]DAIFTNSYR[Orn]VL[Abu]QLSAR[Orn]LLQDI[Nle]DR[Aoc]-NH2
# modifications: N-terminus assumed
# SMILES: CCCC[C@H](NC(=O)[C@@H](NC(=O)[C@H](CC(=O)O)NC(=O)[C@H](CCC(N)=O)NC(=O)[C@H](CC(C)C)NC(=O)[C@H](CC(C)C)NC(=O)[C@H](CCCN)NC(=O)[C@H](CCCNC(=N)N)NC(=O)[C@H](C)NC(=O)[C@H](CO)NC(=O)[C@H](CC(C)C)NC(=O)[C@H](CCC(N)=O)NC(=O)[C@H](CC)NC(=O)[C@H](CC(C)C)NC(=O)[C@@H](NC(=O)[C@H](CCCN)NC(=O)[C@H](CCCNC(=N)N)NC(=O)[C@H](Cc1ccc(O)cc1)NC(=O)[C@H](CO)NC(=O)[C@H](CC(N)=O)NC(=O)[C@@H](NC(=O)[C@H](Cc1ccccc1)NC(=O)[C@@H](NC(=O)[C@H](C)NC(=O)[C@H](CC(=O)O)NC(=O)[C@@H](C)NC(=O)[C@H](Cc1ccc(O)cc1)NC)[C@@H](C)CC)[C@@H](C)O)C(C)C)[C@@H](C)CC)C(=O)N[C@@H](CC(=O)O)C(=O)N[C@@H](CCCNC(=N)N)C(=O)NCCCCCCCC(N)=O
# notes: also called Peptide 21303
# Target: T1, GHRH receptor (membrane receptors of …)
# Assay: competition with 125I-JV-1-42, human pituitary membranes
# Excerpt: Normal human pituitaries were purchased from the National Hormone and Peptide Program (A. F. Parlow, Los Angeles, County Harbor-UCLA Medical Center, Torrance, Calif.).
IC50,Relative affinity (Binding potency) vs JI-38,Binder
1.56 nM,2.79 JI-38 = 1,B1
0.86 nM,5.06 JI-38 = 1,B2
3.05 nM,1.43 JI-38 = 1,B3
3.35 nM,1.3 JI-38 = 1,B4
3.61 nM,1.2 JI-38 = 1,B5
1.87 nM,2.32 JI-38 = 1,B6

# — US20140179604A1 (U S A REPRESENTED BY THE DEPARTMENT OF VETERANS AFFAIRS, published 2014)
